Laboratory results: US20110293610A1 (published 2011)

Biological target: T1, biotinylated B Lymphocyte Stimulator, soluble form (human, UniProt Q9Y275 134-285, biotinylated with NHS-biotin, molar ratio 20:1 biotin:protein)
T1 construct: also called bio-B Lymphocyte Stimulator; free B Lymphocyte Stimulator
Assay: phage scFv, receptor binding inhibition on IM9 cells
Protocol: Fifty-five μl of each appropriate phage supernatant was added to each well and the final volume in each well was 65 μl. Plates were then incubated at room temperature for 30 minutes.
Plates were washed three times in PBST and three times in PBS, tapped dry and 50 μl of streptavidin-Delfia (Wallac) was added to each well at 1:1000 dilution in the Manufacturer's assay buffer. The plates were then incubated at room temperature for 1 hour and washed six times in Delfia wash solution (Wallac). After tapping the plates dry, 100 μl per well of Delfia enhancement solution (Wallac) was added. The plates were gently tapped to encourage micelle formation, incubated at room temperature for 10 minutes, and fluorescence read on a Wallac 1420 workstation at […].

binding result | Binder
binds | I008B01 (scFv) scFv: QVQLVQSGAEVMKPGASVKVSCKASGYNFNNYAMQWVRQAPGQRLEWMGWIVPGNGKTKYSQKFQDRVTIARDTSASTVYMELSSLTSEDTAMYYCARATYDPLTGYSFDGFDIWGQGTTVTVSSGGGGSGGGGSGGGGSQSVLTQPASVSGSPGQSITISCTGTSSDVGGYNYVSWYQQHPGKAPKLMIYEGSKRPSGVSNRFSGSKSGNTASLTISGLQAEDEADYYCSSYTTRSTRVFGGGTKLTVLG
binds | I008A09 (scFv) scFv: GVQLVQSGGGVVQPGGSLRLSCAASGFTFSSYGMHWVRQAPGKGLEWVAVISYDGSNKYYADSVKGRFTISRDNSKNTLYLQMNSLRAEDTAVYYCARDREAYYDILTGYYLYYYYMDVWGRGTTVTVSSGGGGSGGGGSGGGGSQSVLTQPASVSGSPGQSITISCTGTSSDVGGYNYVSWYQQHPGKAPKLMIYEGSKRPSGVSNRFSGSKSGNTASLTISGLQAEDEADYYCSSYTTGSTRVFGGGTKLTVLG
binds | I031G10 (scFv) scFv: QVQLVQSGAEVKKPGSSVKVSCRVSGGSFTDDSINWLRQAPGQGLEWVGGTIPLANRANYAQKFRDRVTITADELTATVFLELTSLRSDDTALYYCARSSPPKWYDALTGDSSYHSAMDVWGRGTLVTVSSGGGGSGGGGSGGGGSAQSVVTQPPSVSAAPGQKVTISCSGSTSNIGRNYVSWYQQLPGTATKLLIYDNNKRPSGIPDRFSGSKSGTSATLGITGLQTGDEADYYCGTWDSSLRIYVFGTGTKVTVLG
binds | I031F09 (scFv) scFv: QVQLVQSGAEVKKPGASVKVSCTVSGDSFSRHGISWVRQAPGQGLEWMGWISVYNGDTKYAQKVQGRVTMTTDTSTNTVYMELRRLRSDDTAVYYCARDEGRDLLTGYYWPNFFDSWGRGTLVTVSSGGGGSGGGGSGGGGSALSYVLTQPPSASGTPGQRVTISCSGSRPNIGGNTVNWYQQLPGAAPKLLIYSNSQRPSGVPDRFSGSKYGTSASLAISGLQSDDEADYYCAAWDDSLTGPVFGGGTKLTVLG
binds | I031G11 (scFv) scFv: QVQLVQSGAEVKKPGASVKVSCTVSGDSFSRHGISWVRQAPGQGLEWMGWISVYNGDTKYAQKVQGRVTMTTDTSTNTVYMELRRLRSDDTAVYYCARDEGRDLLTGYYWPNFFDSWGRGTLVTVSSGGGGSGGGGSGGGGSALSYVLTQPPSVSGTPGQKVTISCSGSRPNIGGNTVNWYQQLPGAAPKLLIYSNSQRPSGVPDRFSGSKYGTSASLAISGLQSDDEADYYCAAWDDSLTGPVFGGGTKLTVLG
binds | I016H07 (scFv) scFv: GVQLVQSGAEVKKPGASVKVSCKASGYTFTHYAINWLRQAPGQRPEWMGTINTGNGNTKYSQNFQGRLTITRDTSASTVNMELSSLRSEDTAVYYCAGGYHDPLTSYNYNWFDPWGQGTMVTVSSGGGGSGGGGSGGGGSSELTQDPAVSVALGQTVRITCQGDSLRSYYTNWFQQKPGQAPLLVVYAKNKRPSGIPDRFSGSSSGNTASLTITGAQAEDEADYYCHSRDSSGNHVLFGGGTKLTVLG
binds | I001C09 (scFv) scFv: GVQLVQSGPEVKKPGASVKVSCTASGYTFTSYGVSWVRQAPGQGLEWIGWISAHNGQTKYAEKFQGRVTMTRNTSISTAYMELSSLRSEDTAVYYCARDGSYDILTGYYIDNYMDVWGKGTMVTVSSGGGGSGGGGSGGGGSSELTQDPAVSVALGQTVRITCQGDSLRSYYTNWFQQKPGQAPLLVVYAKNKRPSGIPDRFSGSSSGNTASLTITGAQAEDEADYYCHSRDSSGNHVLFGGGTKLTVLG
binds | I018C10 (scFv) scFv: GVQLVQSGPEVKKPGASVKVSCTASGYTFTSYGVSWVRQAPGQGLEWIGWISAHNGQTKYAEKFQGRVTMTRNTSISTAYMELSSLRSEDTVVYYCARDGSYDILTGYYIDNYMDVWGKGTMVTVSSGGGGSGGGGSGGGGSSELTQDPAVSVALGQTVRITCQGDSLRSYYTNWFQQKPGQAPLLVVYAKNKRPSGIPDRFSGSSSGNTASLTITGAQAEDEADYYCHSRDSSGNHVLFGGGTKLTVLG
binds | I018D07 (scFv) scFv: GVQLVQSGPEVKKPGASVIVSCTASGYTFTSYGVSWVRQAPGQGLEWIGWISAHNGQTKYAEKFQGRVTMTRNTSISTAYMELSSLRSEDTAVYYCARDGSYDILTGYYIDNYMDVWGKGTMVTVSSGGGGSGGGGSGGGGSSELTQDPAVSVALGQTVRITCQGDSLRSYYTNWFQQKPGQAPLLVVYAKNKRPSGIPDRFSGSSSGNTASLTITGAQAEDEADYYCHSRDSSGNHVLFGGGTKLTVLG
binds | I016E05 (scFv) scFv: QVQLQQSGAEVKKPGASVKVSCKASGYTFTKYTMHWVRQAPGQGPEWMGWINGGSGDTKYSRKFQGRVTITKDTSASAAYMELSSLGSEDTALYYCARATYDPLTGYSFDGFDIWGKGTMVTVSSGGGGSGGGGSGGGGSQSALTQPASVSGSPGQSITISCTGTSSDVGGYNYVSWYQQHPGKAPKLMIYEGSKRPSGVSNRFSGSKSGNTASLTISGLQAEDEADYYCSSYTTRSTRVFGGGTKLTVLG
binds | I018H08 (scFv, also called 1018H08) scFv: QVQLQQSGAEVKKPGASVNVSCKASGYTFTKYTMHWVRQAPGQGPEWMGWINGGSGDTKYSRKFQGRVTITKDTSASAAYMELSSLGSEDTALYYCARATYDPLTGYSFDGFDIWGQGTMVTVSSGGGGSGGGGSGGGGSQSVLTQPASVSGSPGQSITISCTGTSSDVGGYNYVSWYQQHPGKAPKLMIYEGSKRPSGVSNRFSGSKSGNTASLTISGLQAEDEADYYCSSYTTRSTRVFGGGTKLTILG
binds | I018H09 (scFv) scFv: QVQLQQSGAEVKKPGASVKVSCKASGYTFTKYTMHWVRQAPGQGPEWMGWINGGSGDTKYSRKFQGRVTITKDTSASATYMELSSLGSEDTALYYCARATYDPLTGYSFDGFDIWGKGTMVTVSSGGGGSGGGGSGGGGSQSVLTQPASVSGSPGQSITISCTGTSSDVGGYNYVSWYQQHPGKAPKLMIYEGSKRPSGVSNRFSGSKSGNTASLTISGLQAEDEADYYCSSYTTRSTRVFGGGTKLTVLG
binds | I037E07 (scFv) scFv: QVQLVQSGAEVKKPGASVKVSCKASGYTFTNYGITWVRQAPGQGLEWMGWISAYNGNRNYAQKLQGRVTMTTDTSTSTAYMELRSLRSDDTAVYYCVRDGIDILLVPAALMDVWGRGTMVTVSSGGGGSGGGGSGGGGSQSVLTQPASVSGSPGQSITISCTGTSSDVGGYNYVSWYQQHPGKAPKLMIYEGSKRPSGVSNRFSGSKSGNTASLTISGLQAEDEADYYCSSYTTRSTRVFGGGTKLTVLG
binds | I037E12 (scFv) scFv: EVQLVQSGAEVKKPGASVKVSCKASGYTFTNYGITWVRQAPGQGLEWMGWISAYNGNRNYAQKLQGRVTMTTDTSTSTAYMELRSLRSDDTAVYYCVRDGIDILLVPAALMDVWGKGTLVTVSSGGGGSGGGGSGGGGSQSVLTQPASVSGSPGQSITISCTGTSSDVGGYNYVSWYQQHPGKAPKLMIYEGNKRPSGVSNRFSGSKSGNTASLTISGLQAEDEADYYCSSYTTRSTRVFGGGTKLTVLG
binds | I017D10 (scFv) scFv: RVQLVQSGAEVKKPGASVKVSCKASGYTFTSDHISWVRQAPGQGLEWMGWISPHHGKTNYAQKLQGRVTMTTDTSTSTAYMELRSLRSDDTAVYYCARVQMDSEYYDLLTGINVGPYYFDYWGKGTLVTVSSGGGGSGGGGSGGGGSSELTQDPAVSVALGQTVRITCQGDSLRSYYASWYQQKPGQAPVLVIYGKNNRPSGIPDRFSGSSSGNTASLTITGAQAEDEADYYCNSRDSSGNHVVFGGGTKLTVLG
binds | I021B05 (scFv) scFv: QVQQSGADVKKPGGSLRLSCAASGFTFSSYSMNWVRQAPGKGLEWVSSISSSSSYIYYADSVKGRFTISRDNAKNSLYLQMNSLRAEDTAVYYCAREGGNYDILTGYYIGNGAFDIWGRGTMVTVSSGGGGSGGGGSGGGGSQSVLTQPASVSGSPGQSITISCTGTSSDVGGYNYVSWYQQHPGKAPKLMIYEGSKRPSGVSNRFSGSKSGNTASLTISGLQAEDEADYYCSSYTTRSTRVFGGGTKLTVLG
binds | I026E03 (scFv) scFv: EVQLVQSGGEVKRPGASVKVSCKASGYTFSRYGISWVRQAPGQGLEWMGWISAYNGKTSFAEKFQGRVTLTTDTSTTTVDMELRNLRSDDTAVYYCARTDYDILTGYPMGYFDPWGKGTLVTVSSGGGGSGGGGSGGGGSALSSELTQDPAVSVALGQTVKITCQGDSLRSFYAAWYQQKPGQAPILVISGKNNRPSGIPDRFSGSSSGNTASLTITGAQAEDEADYYCNSRDTSGNHYVFGAGTKLTVLG
binds | I007B03 (scFv) scFv: GVQLQQSGAEVKKPGSSVKVSCKASGGTFNTSGITWVRQAPGQGLEWMGWMNPNTGDTAYAQEFQGRVIMTRDTSISTAYMELSSLRSEDTAVYYCARDGSYDILTGYYIDNYMDVWGQGTMVTVSSGGGGSGGGGSGGGGSQSVLTQPASVSGSPGQSITISCTGTSSDVGGYNYVSWYQQHPGKAPKLMIYEGSKRPSGVSNRFSGSKSGNTASLTISGLQAEDEADYYCSSYTTRSTRVFGGGTKLTVLG
binds | I050A12 (scFv) scFv: EVQLVQSGAEVKKPGSSVKVSCKASGDTFSHYAINWVRQAPGQGLEWMGGIIPTFNAVKYAQKFQGRATITADGSTSTAYMELNSLRSEDTAVYYCATAPYDLLTHYFHYFDYWGQGTMVTVSSGGGGSGGGGSGGGGSALSSELTQDPAVSVTLGQTVRITCQGDSLRSYYPSWYQQKPGQAPVLVIYPKNIRPSGIPDRFSGSSSGNTASLTITGAQAEDEADYYCNSRASSGNHYVFATGTKLTVLG
